According to article PMC4967826, “Combined structural, biochemical and cellular evidence demonstrates that both FGDF motifs in alphavirus nsP3 are required for efficient replication” (Open Biology, 2016):

How the values were obtained:
[1] = test system: G3BP-1 F15A mutant; settings: isothermal titration calorimetry; ref [28]; cited from earlier work
Text: The importance of the hydrophobic FGDF-binding site of G3BP-1 has been validated in previous binding studies using mutated versions of G3BP in which Phe-33 and Phe-15 were substituted to tryptophan and alanine, respectively. Both Phe-33 and Phe-15 are localized centrally within the hydrophobic binding site that coordinates the phenylalanine residues of the FGDF motif (figure 2b,c).

[2] = molecular target: nsP3-F3AC of virus SFV-F3AC (Semliki Forest virus)
[3] = molecular target: GFP-nsP3-36 (GFP fused to the C-terminal 36 residues of SFV nsP3, C-terminal His tag) (Semliki Forest virus); assay: MST
[4] = molecular target: GFP-nsP3-36-F3AC (Semliki Forest virus); assay: MST
[5] = molecular target: GFP-nsP3-36-F3ANC (Semliki Forest virus); assay: MST
[6] = molecular target: GFP-nsP3-36-F3AN (Semliki Forest virus); assay: MST

For “DSGFSFGSK [nucleoporin (Nup)-derived peptide]”, which “binding affinity to F15A mutant of G3BP-1” value [1] is on record?
The value was “five times lower binding affinity”.

For “G3BP-1 (endogenous, BHK cells) (from UniProt A0A9J7JVX0 1-465) (natural protein)”, which G3BP-1 in the IP relative to SFV WT (densitometry) [2] is on record?
Its G3BP-1 in the IP relative to SFV WT (densitometry) is 49.5%.

With “NTF2-like domain of human G3BP-1 (residues 1-139) (from UniProt Q13283 1-139) (domain or fragment)” as the substance, how does the binding constant of the high-affinity binding event [3] read?
The binding constant of the high-affinity binding event was 150 nM.

What about the binding constant of the low-affinity binding event [3] of the same substance?
Its binding constant of the low-affinity binding event is 4.1 µM.

What about the binding constant of the high-affinity binding event [4] of the same substance?
Its binding constant of the high-affinity binding event is 410 nM.

What about the binding constant of the low-affinity binding event [4] of the same substance?
Its binding constant of the low-affinity binding event is 23 µM.

And the Kd [5]?
Its Kd is 17 µM.

And the Kd [6]?
The Kd was 5.8 µM.
